Results as given in article PMC3437207, “G-quadruplex recognition activities of E. Coli MutS”.
Changes are numbered by the printed parent chain.

T1: MutS F36A (Escherichia coli, UniProt P23909 1-853, F36A)
T1 sequence: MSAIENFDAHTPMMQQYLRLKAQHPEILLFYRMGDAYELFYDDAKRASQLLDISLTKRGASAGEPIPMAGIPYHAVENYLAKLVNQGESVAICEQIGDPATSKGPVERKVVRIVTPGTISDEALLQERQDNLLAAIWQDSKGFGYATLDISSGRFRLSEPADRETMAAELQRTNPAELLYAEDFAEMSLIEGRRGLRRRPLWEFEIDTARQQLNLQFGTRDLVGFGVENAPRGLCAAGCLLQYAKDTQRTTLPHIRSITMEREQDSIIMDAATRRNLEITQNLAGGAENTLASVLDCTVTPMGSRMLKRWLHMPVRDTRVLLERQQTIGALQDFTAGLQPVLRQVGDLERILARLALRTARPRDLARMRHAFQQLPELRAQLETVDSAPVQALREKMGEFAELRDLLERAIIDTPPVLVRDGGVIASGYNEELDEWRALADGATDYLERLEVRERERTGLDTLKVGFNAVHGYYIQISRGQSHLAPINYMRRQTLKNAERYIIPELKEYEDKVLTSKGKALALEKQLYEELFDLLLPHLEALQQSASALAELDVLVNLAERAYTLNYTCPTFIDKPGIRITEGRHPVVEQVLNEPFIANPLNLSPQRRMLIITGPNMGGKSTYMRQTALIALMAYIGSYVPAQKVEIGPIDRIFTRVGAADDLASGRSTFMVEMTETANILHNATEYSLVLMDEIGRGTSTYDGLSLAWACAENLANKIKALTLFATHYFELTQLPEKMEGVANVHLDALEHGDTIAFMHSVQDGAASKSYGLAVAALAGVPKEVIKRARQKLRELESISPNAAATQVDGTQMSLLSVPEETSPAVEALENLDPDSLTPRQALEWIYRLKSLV

B1: G-T mismatch heteroduplex (dsDNA)
DNA 1: CTAGCAAGCTTTCGATTCTAGAAATTCGGC
DNA 2: GCCGAATTTCTAGAATTGAAAGCTTGCTAG
B2: Homoduplex (dsDNA)
DNA 1: B1 DNA 1 with G14A
DNA 2: B1 DNA 2

Legend:
MutS F36A [1] = biological target: T1, MutS F36A; experiment: EMSA; 19-150 nM protein; no nucleotide; 5 mM Mg2+; 20 mM Tris pH 7.6, 5 mM MgCl2, 1 mM DTT, 50 ug/ml BSA, 10 mM KCl, 200 fmol homoduplex competitor, 10-20 fmol labeled DNA in 20 ul; 6% native PAGE 0.5X TBE with; conditions: protein: recombinant; tags: His; chain copies: 2; label: 5' 32P; blunt; single G-T mismatch at position 14 of strand 1
MutS F36A [2] = biological target: T1, MutS F36A; experiment: EMSA; 38-150 nM protein; 20 mM Tris pH 7.6, 5 mM MgCl2, 1 mM DTT, 50 ug/ml BSA, 10 mM KCl, 200 fmol homoduplex competitor, 10-20 fmol labeled DNA in 20 ul; 6% native PAGE 0.5X TBE with; conditions: protein: recombinant; tags: His; chain copies: 2; label: 32P; blunt

Row | Binder | binding result (MutS F36A [1]) | binding result (MutS F36A [2])
1 | B1 | no binding | –
2 | B2 | – | no binding
